Measured values from patent US20100119506A1 (published 2010).
Changes are numbered by the printed parent chain.

Assays:
[1] = molecular target: T1, PAR-2 peptide (SEQ ID NO:42) coupled to Transferrin as carrier (coupled to Transferrin as carrier); test: ELISA on peptide
T1 construct: Transferrin carrier not further described
T1 peptide: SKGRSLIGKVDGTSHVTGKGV

[2] = molecular target: T2, PAR-4 peptide (SEQ ID NO:44); test: ELISA on peptide
T2 peptide: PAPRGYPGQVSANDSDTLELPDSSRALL

[3] = molecular target: labeled peptide representing the N-terminus of PAR-2 (FRET assay); test: cell-based or functional assay
Murine PAR-2 peptide [4] = molecular target: T3, Murine PAR-2 peptide (murine); test: Kinexa, peptide in solution
T3 construct: also called mouse PAR-2 peptide
T3 peptide: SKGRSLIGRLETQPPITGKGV
Method: (§1) Binding to peptide in solution was determined by Kinexa technology.

Rat PAR-2 peptide [5] = molecular target: T4, Rat PAR-2 peptide (rat); test: Kinexa, peptide in solution
T4 peptide: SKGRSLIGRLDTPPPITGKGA
Method: as §1

Cynomolgus PAR-2 peptide = molecular target: T5, Cynomolgus PAR-2 peptide (cynomolgus); test: Kinexa, peptide in solution
T5 peptide: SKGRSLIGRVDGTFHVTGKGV
Method: as §1

Rat PAR-2 peptide [6] = molecular target: T4, Rat PAR-2 peptide; test: Rat PAR-2 Peptide Binding (Kinexa)
Method: as §1

Murine PAR-2 peptide [7] = molecular target: T3, Murine PAR-2 peptide; test: Mouse PAR-2 Peptide Binding (Kinexa)
Method: as §1

Human PAR-2 on cells [8] = molecular target: T6, Human PAR-2 on cells (human, UniProt P55085 26-397); test: cell binding, Fab against IgG4p of the same clone
T6 construct: also called HEK-PAR-2 (#3); human PAR-2 transfected HEK293 cells
T6 sequence: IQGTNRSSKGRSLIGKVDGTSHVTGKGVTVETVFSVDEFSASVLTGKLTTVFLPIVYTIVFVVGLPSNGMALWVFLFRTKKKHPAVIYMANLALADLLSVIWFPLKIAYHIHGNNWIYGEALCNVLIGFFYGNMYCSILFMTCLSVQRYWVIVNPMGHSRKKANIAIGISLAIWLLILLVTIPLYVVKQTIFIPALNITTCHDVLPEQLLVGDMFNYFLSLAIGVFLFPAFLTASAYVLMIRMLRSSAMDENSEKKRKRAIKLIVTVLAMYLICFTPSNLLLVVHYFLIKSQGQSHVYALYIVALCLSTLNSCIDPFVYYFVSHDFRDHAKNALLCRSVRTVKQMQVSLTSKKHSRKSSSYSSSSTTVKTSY

Human PAR-2 on cells [9] = molecular target: T6, Human PAR-2 on cells; test: binding of Fab to PAR-2 transfected HEK cells (HEK-PAR-2 #3)
[10] = molecular target: T7, PAR-1 peptide (SEQ ID NO:43); test: ELISA on peptide
T7 peptide: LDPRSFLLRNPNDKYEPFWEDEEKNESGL

Human PAR-2 on cells [11] = molecular target: T6, Human PAR-2 on cells; test: cell-based or functional assay
[12] = molecular target: T8, FLAG-tagged PAR-2 over-expressed on HEK transfectants (Homo sapiens (Human), UniProt P55085 37-397); test: cell-based or functional assay
T8 sequence: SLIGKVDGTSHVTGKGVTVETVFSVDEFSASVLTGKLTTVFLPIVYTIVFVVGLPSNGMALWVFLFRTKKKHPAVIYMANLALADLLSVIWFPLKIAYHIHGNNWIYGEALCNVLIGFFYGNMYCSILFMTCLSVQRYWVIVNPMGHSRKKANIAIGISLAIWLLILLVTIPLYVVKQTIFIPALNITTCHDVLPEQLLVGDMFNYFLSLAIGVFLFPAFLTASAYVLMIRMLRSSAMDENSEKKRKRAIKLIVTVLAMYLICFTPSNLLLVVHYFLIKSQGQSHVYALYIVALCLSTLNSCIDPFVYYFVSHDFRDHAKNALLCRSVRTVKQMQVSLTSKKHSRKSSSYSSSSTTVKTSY

Human PAR-2 on cells [13] = molecular target: T6, Human PAR-2 on cells; test: cell binding of IgG4_Pro, HEK-PAR-2 (#3)
Human PAR-2 on cells [14] = molecular target: T6, Human PAR-2 on cells; test: binding of IgG4p to PAR-2 transfected HEK cells (HEK-PAR-2 #3)
[15] = molecular target: T9, Human PAR-2 peptide (SEQ ID NO:1, Residues 33-54) (human); test: Kinexa, peptide in solution
T9 peptide: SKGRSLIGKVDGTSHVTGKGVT
Method: as §1

B1: Ab4996 IgG4_Pro (antibody, V domains shown)
VH: QVQLVESGGGLVQPGGSLRLSCAASGFTFSNHAMHWVRQAPGKGLEWVSAISHPGKFTYYADSVKGRFTISRDNSKNTLYLQMNSLRAEDTAVYYCARHGDGMDYFDFWGQGTLVTVSS
VL: DIELTQPPSVSVAPGQTARISCSGDNIGTKYVYWYQQKPGQAPVLVIYDDNNRPSGIPERFSGSNSGNTATLTISGTQAEDEADYYCQSYDSQTMVFGGGTKLTVLG
notes: IgG4_Pro (human IgG4 constant regions, Ser241Pro hinge), lambda; also called IgG4p Ab4996
- binding result [1]: binds
- binding result [2]: no binding
- FRET Peptide Cleavage IC50 [3]: < 30 nM

B2: Antibody Par-D (antibody, V domains shown)
VH: B1 VH with Q3E
VL: B1 VL
notes: Codon-optimized version of Ab4996
- Kd (Murine PAR-2 peptide [4]): 0.42 nM
- Kd (Rat PAR-2 peptide [5]): 0.04 nM
- Kd (Cynomolgus PAR-2 peptide): 0.14 nM
- Kd (Rat PAR-2 peptide [6]): 0.04 nM
- Kd (Murine PAR-2 peptide [7]): 0.42 nM

B3: Ab4994 Fab (Fab, V domains shown)
VH: QVELVESGGGLVQPGGSLRLSCAASGFTFSSYAMNWVRQAPGKGLEWVSAISYSGHLTGYADSVKGRFTISRDNSKNTLYLQMNSLRAEDTAVYYCARIQNDPMDVWGQGTLVTVSS
VL: DIELTQPPSVSVAPGQTARISCSGDNLGKKYVQWYQQKPGQAPVLVIYDDSNRPSGIPERFSGSNSGNTATLTISGTQAEDEADYYCSSWDVGSDGWVFGGGTKLTVLG
notes: Fab
- Ratio of EC50 Fab / EC50 IgG (Human PAR-2 on cells [8]): 4.8
- EC50 (Human PAR-2 on cells [9]): 1.9 nM

B4: Ab4999 IgG4_Pro (antibody, V domains shown)
VH: B3 VH with E3Q, A50T, G55S, H56S, L57A, G59S
VL: DIELTQPPSVSVAPGQTARISCSGDNLGKKYVQWYQQKPGQAPVLVIYDDSNRPSGIPERFSGSNSGNTATLTISGTQAEDEADYYCQTWDYSSIRDETNVFGGGTKLTVLG
notes: IgG4_Pro (human IgG4 constant regions, Ser241Pro hinge), lambda; also called IgG4p Ab4999
- binding result [1]: binds
- binding result [10]: no binding
- binding result [2]: no binding
- FLIPR A549 cells IC50 (Human PAR-2 on cells [11]): 3.1 nM
- FLAG Cell-Based Cleavage Approx. IC50 [12]: < 1 nM
- FRET Peptide Cleavage IC50 [3]: < 30 nM
- EC50 (Human PAR-2 on cells [13]): 0.2 nM
- EC50 (Human PAR-2 on cells [14]): 0.2 nM

B5: Ab4994 IgG4_Pro (antibody, V domains shown)
VH: B3 VH with E3Q
VL: B3 VL
notes: IgG4_Pro: variable regions fused to human IgG4 constant regions with Ser241Pro in the hinge, lambda light chain; also called IgG4p Ab4994
- FLIPR A549 cells IC50 (Human PAR-2 on cells [11]): 2.2 nM
- FLAG Cell-Based Cleavage Approx. IC50 [12]: < 1 nM
- FRET Peptide Cleavage IC50 [3]: < 30 nM
- EC50 (Human PAR-2 on cells [13]): 0.4 nM
- EC50 (Human PAR-2 on cells [14]): 0.4 nM

B6: Ab5006 Fab (Fab, V domains shown)
VH: B3 VH with S49G, Y53F, S54D, H56M
VL: B3 VL
notes: Fab
- EC50 (Human PAR-2 on cells [9]): 11.9 nM

B7: Ab5151 IgG4_Pro (cross-cloned: light chain of Ab4999 with heavy chain of Ab5007) (antibody, V domains shown)
VH: B3 VH with E3Q, Y53F
VL: B4 VL
notes: IgG4_Pro format
- binding result [1]: binds
- binding result [10]: no binding
- binding result [2]: no binding
- FLIPR A549 cells IC50 (Human PAR-2 on cells [11]): 4 nM
- FLAG Cell-Based Cleavage Approx. IC50 [12]: < 1 nM
- FRET Peptide Cleavage IC50 [3]: < 30 nM
- EC50 (Human PAR-2 on cells [13]): 0.4 nM

B8: Ab5003 Fab (Fab, V domains shown)
VH: B3 VH with S54K
VL: B3 VL
notes: Fab
- Ratio of EC50 Fab / EC50 IgG (Human PAR-2 on cells [8]): 15.3
- EC50 (Human PAR-2 on cells [9]): 7.03 nM

B9: Ab5007 IgG4_Pro (antibody, V domains shown)
VH: B3 VH with E3Q, Y53F
VL: B3 VL
notes: IgG4_Pro (human IgG4 constant regions, Ser241Pro hinge), lambda; also called IgG4p Ab5007
- FLIPR A549 cells IC50 (Human PAR-2 on cells [11]): 3.7 nM
- FLAG Cell-Based Cleavage Approx. IC50 [12]: < 1 nM
- FRET Peptide Cleavage IC50 [3]: < 30 nM
- EC50 (Human PAR-2 on cells [13]): 0.5 nM
- EC50 (Human PAR-2 on cells [14]): 0.5 nM

B10: Antibody Par-C (antibody, V domains shown)
VH: B3 VH with Y53F
VL: B4 VL
notes: Codon-optimized version of Ab5151
- Kd [15]: 0.03 nM
- Kd (Murine PAR-2 peptide [4]): 0.03 nM

B11: Ab5005 IgG4_Pro (antibody, V domains shown)
VH: B3 VH with E3Q, A50T, G55S, H56S, L57A, G59S
VL: DIELTQPPSVSVAPGQTARISCSGDNLGKKYVQWYQQKPGQAPVLVIYDDSNRPSGIPERFSGSNSGNTATLTISGTQAEDEADYYCQSWALVGSSESNVFGGGTKLTVLG
notes: IgG4_Pro (human IgG4 constant regions, Ser241Pro hinge), lambda; also called IgG4p Ab5005
- FLIPR A549 cells IC50 (Human PAR-2 on cells [11]): 2.5 nM
- FLAG Cell-Based Cleavage Approx. IC50 [12]: < 1 nM
- FRET Peptide Cleavage IC50 [3]: < 30 nM
- EC50 (Human PAR-2 on cells [13]): 0.1 nM
- EC50 (Human PAR-2 on cells [14]): 0.06 nM

B12: Ab4999 Fab (Fab, V domains shown)
VH: B3 VH with A50T, G55S, H56S, L57A, G59S
VL: B4 VL
notes: Fab
- Ratio of EC50 Fab / EC50 IgG (Human PAR-2 on cells [8]): 0.3
- EC50 (Human PAR-2 on cells [9]): 0.06 nM

B13: Ab5150 IgG4_Pro (cross-cloned: light chain of Ab4999 with heavy chain of Ab5003) (antibody, V domains shown)
VH: B3 VH with E3Q, S54K
VL: B4 VL
notes: IgG4_Pro format
- FLIPR A549 cells IC50 (Human PAR-2 on cells [11]): 2.3 nM
- FLAG Cell-Based Cleavage Approx. IC50 [12]: < 1 nM
- FRET Peptide Cleavage IC50 [3]: < 30 nM
- EC50 (Human PAR-2 on cells [13]): 0.3 nM

B14: Ab4997 IgG4_Pro (antibody, V domains shown)
VH: B3 VH with E3Q, S54N, H56K, T58K
VL: B3 VL
notes: IgG4_Pro (human IgG4 constant regions, Ser241Pro hinge), lambda; also called IgG4p Ab4997
- FLIPR A549 cells IC50 (Human PAR-2 on cells [11]): 2.4 nM
- FLAG Cell-Based Cleavage Approx. IC50 [12]: < 1 nM
- FRET Peptide Cleavage IC50 [3]: < 30 nM
- EC50 (Human PAR-2 on cells [13]): 0.4 nM
- EC50 (Human PAR-2 on cells [14]): 0.38 nM

B15: Ab5149 IgG4_Pro (cross-cloned: light chain of Ab4999 with heavy chain of Ab4997) (antibody, V domains shown)
VH: B3 VH with E3Q, S54N, H56K, T58K
VL: B4 VL
notes: IgG4_Pro format
- FLIPR A549 cells IC50 (Human PAR-2 on cells [11]): 3.3 nM
- FLAG Cell-Based Cleavage Approx. IC50 [12]: < 1 nM
- FRET Peptide Cleavage IC50 [3]: < 30 nM
- EC50 (Human PAR-2 on cells [13]): 0.7 nM

B16: Ab5007 Fab (Fab, V domains shown)
VH: B3 VH with Y53F
VL: B3 VL
notes: Fab
- Ratio of EC50 Fab / EC50 IgG (Human PAR-2 on cells [8]): 19.3
- EC50 (Human PAR-2 on cells [9]): 9.66 nM

B17: Ab4997 Fab (Fab, V domains shown)
VH: B3 VH with S54N, H56K, T58K
VL: B3 VL
notes: Fab
- Ratio of EC50 Fab / EC50 IgG (Human PAR-2 on cells [8]): 8
- EC50 (Human PAR-2 on cells [9]): 3.03 nM

B18: Ab5003 IgG4_Pro (antibody, V domains shown)
VH: B3 VH with E3Q, S54K
VL: B3 VL
notes: IgG4_Pro (human IgG4 constant regions, Ser241Pro hinge), lambda; also called IgG4p Ab5003
- FLIPR A549 cells IC50 (Human PAR-2 on cells [11]): 2.3 nM
- FLAG Cell-Based Cleavage Approx. IC50 [12]: < 1 nM
- FRET Peptide Cleavage IC50 [3]: < 30 nM
- EC50 (Human PAR-2 on cells [13]): 0.5 nM
- EC50 (Human PAR-2 on cells [14]): 0.46 nM
